Test results reported in the nanobody polyreactivity screen of Harvey et al. (2022).

Test: yeast display, Sf9 membrane polyspecificity reagent, FACS + sequencing; frameworks hold sequencing errors
Outline: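 After 36–48 hours of galactose induction, yeast (Saccharomyces cerevisiae BJ5465) displaying a synthetic nanobody library were stained at 4 °C for 1 hour with 10% biotinylated, detergent-solubilized Sf9 membrane reagent. Streptavidin microbeads enriched the stained cells before FACS sorting into low and high (top ~1%) gates on anti-HA and streptavidin fluorescence. Each clone's polyreactivity label reflects its gate of origin.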

Sequence | polyreactivity (PSR sort gate)
QVQLVESGGGLVQAGGSLRLSCAASGRTFNWYAMGWYRQAPGKERELVAAISSRGGSTYADSVKGRFTISRDNAKNTVYLQMNSLKPEDTAVYYCAARHHGTKYDYWGLGTQVTVSS | low polyreactivity
QVQLVESGGGLVQAGGSLRLSCAASGRTFNYNTMGWYRQAPGKERELVAAINKGGTRTYYADSVKGRFTISRDNAKNTVYLQMKSLNPEDTAVYYCAARIGGGSYWGQVTQVTVSS | high polyreactivity
QVQLVESGGGLVQAGGSLRLSCAASGRTFNYYAMGWYRQAPGKERELVAAISWSGTPTYYADSVKGRFTISRDNAKNTVYLQMNCLKPEDTAVYYCAAYLVSYPRGNYIRYDYWGQGTQVTVSS | low polyreactivity
QVQLVESGGGLVQAGGSLRLSCAASGRTFNYYGMGWYRQAPGKERELVAAISRGGTTNYADSVKGRFTISRDNAKNTVYLQMNSLKPEDTAVYYCAKGRSHWHSYQYVRPNYDYWGQGTQVTVSS | low polyreactivity
QVQLVESGGGLVQAGGSLRLSCAASGRTFPAYAMGWYRQAPGKERELVAAITWSGGRTYYADSVKGRFTISRDNAKNTVYLQMNSLKPEDTAVYYCAAQYRVLWYSYYYWGQGTQVTVSS | high polyreactivity
QVQLVESGGGLVQAGGSLRLSCAASGRTFPAYTMGWYRQAPGKERELVAAISRVGTTYYADSVKGRFTISRDNAKNTGYIQMNSLKPEDTAFYYCNARTWSWSFDYWGQGTLVTVSS | high polyreactivity
QVQLVESGGGLVQAGGSLRLSCAASGRTFPFNVMGWYRQAPGKERELVAAISSGGSTNYADSVKGRFTISRDNAKNTVYLQMNSLKPEDTAVYYCAAYSVYGRYGRTFYYWGQGTQVTVSS | high polyreactivity
QVQLVESGGGLVQAGGSLRLSCAASGRTFPFYAMGWYRPAPGKERELVAAIHSGGITNYADSVKGRFTISRDNAKNTVYLQMNSLKPEDYAVYDCAALTAFYRERGYWGEGTQVTVSS | low polyreactivity
QVQLVESGGGLVQAGGSLRLSCAASGRTFPGYAMGWYRQAPGKERELVASITSRGGITYYADSVKGRFTISRDNAKNTVYLQMNSLKPEDTAVYYCATDFAVTKMEYWGQGTQVTVSS | low polyreactivity
QVQLVESGGGLVQAGGSLRLSCAASGRTFPGYGMGWYRQAPGKERELVAVITSNGGITYYADSVKGRFTISRDNAKNTVYLQMNSLKPEDTAVYYCAAQNVWFYGFWRDYWGQGTQVTVSS | low polyreactivity
QVQLVESGGGLVQAGGSLRLSCAASGRTFPHYAMGWYRQAPGKERELVAAITSGGTTNYADSVKGRFTISRDNEKNTVYLQLNSLKPEDTAVYYCNADMDLDTAWDGFVAYDYWGQGTQVTVSS | low polyreactivity
QVQLVESGGGLVQAGGSLRLSCAASGRTFPIYAMGWYRQAPGKERELVAAITYSGGSTYYADSVKGRFTISRDNAKNTVYLQMNSLKPEDTAVYYCAVDGTKPYWHQRYDYWGQGTQVTVSS | low polyreactivity
QVQLVESGGGLVQAGGSLRLSCAASGRTFPIYAMGWYRQAPGKERELVASITRSGGSTYYADSVKGRFTISRDNAKNTVYLQMNSLKPEDTAVYYCAAAANSYSVYTGKFYYWGQGTQVTVSS | high polyreactivity
QVQLVESGGGLVQAGGSLRLSCAASGRTFPIYAMGWYRQARGKERELVAAITYSGGSTYYADSVKGRFTISRDNAKNTDYLQMNSQKPEDTAVYYCAVDGTKPYWHQRYDYWGQGTQVTGSS | low polyreactivity
QVQLVESGGGLVQAGGSLRLSCAASGRTFPLYDMGWYRQAPGKERELVAAISLSGGRTYYADSVKGRFTISRDNAKNTVYLQMNSLKPEDTAVYYCAARGTLSAQVGIRRYDYWGQGTQVTVSS | low polyreactivity
QVQLVESGGGLVQAGGSLRLSCAASGRTFPPNSMAWYRQAPGKERELVAGITRGGNTYYADSVKGRFTISRDNAKNTVYLQMNSLKPEDTAVYYCAAERRYYSWYWYRVNYCGQGTQVTVSS | high polyreactivity
QVQLVESGGGLVQAGGSLRLSCAASGRTFPPYAMGWYRQAPGKERELVAANSWSGGSTYYADSVKGRFTISRDNAKNTVYLQMNSLKPEDTAVYYCAKATRDRGRYYYWGQGTQVTVSS | high polyreactivity
QVQLVESGGGLVQAGGSLRLSCAASGRTFPPYAMGWYRQAPGKERELVASIRRGGSTHYADSVKGRFTISRDNAKNTVYLQMNSLKPEDTAVYYCNADVIFGYTHYNYWGQGTQVTVSS | high polyreactivity
QVQLVESGGGLVQAGGSLRLSCAASGRTFPRNAMGWYRQAPGKERELVARINWSGGSTTYADSVKGRFTISRDNAKNTVYLQMNSLKPEDTAVYYCNARPYTSSFTKYGPSGYWGQGTQVTVSS | high polyreactivity
QVQLVESGGGLVQAGGSLRLSCAASGRTFPRYAMGWYRQAPGKERELVADISFSGDSTSYADSVKGRFTISRDNAKNTVYLQMNSLKPEDTAVYYCNADYKSTVFRYSGSRNYWGQGTQVTVSS | low polyreactivity
QVQLVESGGGLVQAGGSLRLSCAASGRTFPRYVMGWYRQAPGKERELVAAITSSGGSTYYADSVKGRFTISRDKAMNTVYLQMNSLKPEDTAVYYCAAFARPYSGQYAYRLDYWGQGTQVTVSS | high polyreactivity
QVQLVESGGGLVQAGGSLRLSCAASGRTFPVNAMGWYRQAPGKERELVATISWSGGSTYYADSVKGRFTISRDYAKNTVYLQMNSLKPEDTAVYYCAALGRHYRYDYWGQGTLVTVSS | low polyreactivity

Sequence | polyreactivity (PSR sort gate)
QVQLVESGGGLVQAGGSLRLSCAASGRTFPYNAMGWYRQAPGKERELVAAITWSGGSTYYADSVKGRFTISRDNAKNTVYLQMNSLKPEDTAVYYCNKDFPVFEYDYWGQGTQVTVSS | low polyreactivity
QVQLVESGGGLVQAGGSLRLSCAASGRTFPYNAMGWYRQAPGKERELVAGITGGGSTYYADSVKGRFTISRDNAKKTVYLQMNSLKPEDTAVYYCAADRYFLYGTYPDVEFNYWGQGTQVTVSS | high polyreactivity
QVQLVESGGGLVQAGGSLRLSCAASGRTFPYNAMGWYRQAPGKERELVASITYNGGSTYYADSVKGRFTISRDNAKNTVYLQMISLKPEDTAVYYCAKLFRTYYATYNYWGQGTQVTVSS | high polyreactivity
QVQLVESGGGLVQAGGSLRLSCAASGRTFPYYAMGWYRQAPGKERELVAAINSGGITNYADSVKGRFTISRDNAKNTVYLQMNSLKPEDTAVYYCAAKTAFYRERGYWGQGTQVTVSS | low polyreactivity
QVQLVESGGGLVQAGGSLRLSCAASGRTFPYYAMGWYRQAPGKERELVAAITRGVRTHYADSVKGRFTISRDNAKYTVYLQMNSLKPEDTAVYYCAREDWGSYSDMDSWGQGTQVTVSS | low polyreactivity
QVQLVESGGGLVQAGGSLRLSCAASGRTFPYYAMGWYRQAPGKERELVARITSGSGTYYADSVKGRFTISRDNAKNTVYLQMNSLKPEDTAVYYCAAREPGVGYVGNYTGLVYWGQGTQVTVSS | low polyreactivity
QVQLVESGGGLVQAGGSLRLSCAASGRTFPYYTMGWYRQAPGKERELVAAITSGGSTYYADSVKGRFTISRDNAKNTVYLQMNSLKPEDTAVYYCNKDAYYWGQGTQVTVSS | low polyreactivity
QVQLVESGGGLVQAGGSLRLSCAASGRTFPYYVMGWYRQAPGKERELVAAISTTGGSTYYADSVKGRFTISRDNAKNTVYLQMNSLKPEDTAVYYCAARRLIRDNLGYDYWGQGTQVTVSS | high polyreactivity
QVQLVESGGGLVQAGGSLRLSCAASGRTFQEYAMGWYRQAPGKERELVADISDGGSTNYADSVKGRFTISRDNAKNTVYLQMYSLKPEDTAVYYCAADQYHGVGINFRSDYDYWGQGTQVTVSS | low polyreactivity
QVQLVESGGGLVQAGGSLRLSCAASGRTFQFYAMGWYRQAPGKERELVAAISSGGSTNYADSVKGRFTISRDNAKNTVYLEMNSLKPEDSAVYYCAKRPWYHADWWDDHWGQGTQVTVSS | high polyreactivity
QVQLVESGGGLVQAGGSLRLSCAASGRTFQFYVMGWYRQAPGKERELLASIRSGGSTNYADSVKGRFTISRDNAKNTVYLQMNSLKPEDTAVYYCNADAYGTPEFTSYAVRYDYWGQGTQVTVSS | low polyreactivity
QVQLVESGGGLVQAGGSLRLSCAASGRTFQGKAMGWYRQAPGKERELVAAISSSGGRTYYADSVKGRFTISRDNAKNTVYLQMNSLKPVDTSVYYCAARNYFWGQGTQVTVSS | low polyreactivity
QVQLVESGGGLVQAGGSLRLSCAASGRTFQGNAMGWYRQAPGKERELVAVIDSGTSTDYADSVKGRFTISRDNAKNTVYLQMNSLKPEDTAVYYCAADGALGYNLRYDYWGQGTQVTVSS | low polyreactivity
QVQLVESGGGLVQAGGSLRLSCAASGRTFQGYAMGWYRQAPGKERELVAAISYRGGSTYYADSVKGRFTISRDHAKPTVFLPMNSLKPEDTAVYYCAARWNRGRYDYWGQGTQVTVSS | high polyreactivity
QVQLVESGGGLVQAGGSLRLSCAASGRTFQLYAMGWYRQAPGKERDLVAAISARGGSTYYADSVKGRFTISRDNAKNTVYLQMNSLKPEDTAVYYCNADYNVVLSRVIYARGYWGQGTQVTVSS | high polyreactivity
QVQLVESGGGLVQAGGSLRLSCAASGRTFQQNAMGWYRQAPGKERELVAAINSRGGRTYYADSVKGRFTISRDTAKNTVYLQMNSLKPEDTAVYYCAARYYWGQGTQVTVSS | high polyreactivity
QVQLVESGGGLVQAGGSLRLSCAASGRTFQSNAMGWYRQAPGKERELVAAITNGGNTNYADSVKGRFTISRDNAKNTVYLQMNSLKPEDTAVYYCAADRLYVRYGYWGQGTQVTVSS | low polyreactivity
QVQLVESGGGLVQAGGSLRLSCAASGRTFQSNGMGWYRQAPGKERELVAAITWSSGTTYYADSVKGRFTISRDNAKNTVYLQMNSLKPEDTAVYYCAADWGHWNSLFYSGFGYWGQGTQVTVSS | low polyreactivity
QVQLVESGGGLVQAGGSLRLSCAASGRTFQYYAMGWYRQAPGKEREFVAAISRSGGSTYYADSVKGRFTISRDNAKNTVYLQMNSLKPEDTAVYYCAADAYRSSYDYWGQGTQVTVSS | low polyreactivity
QVQLVESGGGLVQAGGSLRLSCAASGRTFQYYAMGWYRQAPGKERELVAAISSRGGSTYYADSVKGRFTISRDNAKNTVYLQMNSLKPEDTAVYYCAAYVLPRQRVRSDYWGQGTQVTVSS | high polyreactivity
QVQLVESGGGLVQAGGSLRLSCAASGRTFQYYTMGWYRQAPGKEREFVAALRDSGGSTYYADSVKGRFTISRDNAKNTVYLQMNSLKPEDTAVYYCAAYRPRKYDYWGQGTQVTVSS | high polyreactivity
